Data on 2 proteins can be found in US20090155236.

This data set concerns the target T1, annexin V protein.
T1 chain: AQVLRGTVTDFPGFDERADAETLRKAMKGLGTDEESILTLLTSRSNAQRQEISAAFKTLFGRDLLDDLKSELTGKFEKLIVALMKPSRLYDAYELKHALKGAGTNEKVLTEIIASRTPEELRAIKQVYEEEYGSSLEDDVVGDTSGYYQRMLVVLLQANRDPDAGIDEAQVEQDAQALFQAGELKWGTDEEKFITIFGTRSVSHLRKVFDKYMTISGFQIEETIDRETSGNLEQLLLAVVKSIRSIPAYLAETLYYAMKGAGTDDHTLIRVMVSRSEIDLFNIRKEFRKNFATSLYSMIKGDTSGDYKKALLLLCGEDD

B1: purified full-length epsilon PKC (protein)
chain: MVVFNGLLKIKICEAVSLKPTAWSLRHAVGPRPQTFLLDPYIALNVDDSRIGQTATKQKTNSPAWHDEFVTDVCNGRKIELAVFHDAPIGYDDFVANCTIQFEELLQNGSRHFEDWIDLEPEGRVYVIIDLSGSSGEAPKDNEERVFRERMRPRKRQGAVRRRVHQVNGHKFMATYLRQPTYCSHCRDFIWGVIGKQGYQCQVCTCVVHKRCHELIITKCAGLKKQETPDQVGSQRFSVNMPHKFGIHNYKVPTFCDHCGSLLWGLLRQGLQCKVCKMNVHRRCETNVAPNCGVDRIAKVLADLGVTPDKITNSGQRRKKLIAGAESPQPASGSSPSEEDRSKSAPTSPCDQEIKELENNIRKALSFDNRGEEHRAASSPDGQLMSPGENGEVRQGQAKRLGLDEFNFIKVLGKGSFGKVMLAELKGKDEVYAVKVLKKDVILQDDDVDCTMTEKRILALARKHPYLTQLYCCFQTKDRLFFVMEYVNGGDLMFQIQRSRKFDEPRSRFYAAEVTSALMFLHQHGVIYRDLKLDNILLDAEGHCKLADFGMCKEGILNGVTTTTFCGTPDYIAPEILQELEYGPSVDWWALGVLMYEMMAGQPPFEADNEDDLFESILHDDVLYPVWLSKEAVSILKAFMTKNPHKRLGCVASQNGEDAIKQHPFFKEIDWVLLEQKKIKPPFKPRIKTKRDVNNFDQDFTREEPVLTLVDEAIVKQINQEEFKGFSYFGEDLMP
Regarding B1, the “histone phosphorylation in an in vitro kinase reaction (SDS-PAGE, autoradiography)” value was “annexin V does not increase the activity of epsilon PKC”.

B2: recombinant full-length delta PKC (protein)
chain: MAPFLRISFNSYELGSLQVEDEASQPFCAVKMKEALSTERGKTLVQKKPTMYPEWKTTFDAHIYEGRVIQIVLMRAAEDPVSEVTVGVSVLAERCKKNNGKAEFWLDLQPQAKVLMCVQYFLEDGDCKQSMRSEEEAKFPTMNRRGAIKQAKIHYIKNHEFIATFFGQPTFCSVCKEFVWQKQGYKCRQCNAAIHKKCIDKIIGRCTGTATNSRDTIFQKERFNIDMPHRFKVYNYMSPTFCDHCGSLLWGLVKQGLKCEDCGMNVHHKCREKVANLCGINQKLLAEALNQVTQRSSRKLDTTESVGIYQGFEKKPEVSGSDILDNNGTYGKIWEGSTRCTLENFTFQKVLGKGSFGKVLLAELKGKDKYFAIKCLKKDVVLIDDDVECTMVEKRVLALAWESPFLTHLICTFQTKDHLFFVMEFLNGGDLMFHIQDKGRFELYRATFYAAEIICGLQFLHSKGIIYRDLKLDNVMLDRDGHIKIADFGMCKENIFGEGRASTFCGTPDYIAPEILQGLKYSFSVDWWSFGVLLYEMLIGQSPFHGDDEDELFESIRVDTPHYPRWITKESKDIMEKLFERDPDKRLGVTGNIRIHPFFKTINWSLLEKRKVEPPFKPKVKSPSDYSNFDPEFLNEKPQLSFSDKNLIDSMDQEAFHGFSFVNPKFEQFLDI
In the case of B2, the “histone phosphorylation in an in vitro kinase reaction (SDS-PAGE, autoradiography)” value is recorded as “The addition of annexin V to delta PKC in the presence of PS/DAG (Lane 3) increases the catalytic activity of delta PKC”.
